Results as given in patent US20230406885A1, “CYCLIC PEPTIDES FOR TRAPPING INTERLEUKIN-1 BETA” (MERCK SHARP & DOHME LLC, priority 2022, published 2023).
*1 amine or outer side, *2 acyl side, *3 side chain or, on linkers, in order; H or OH if unused. [ ]: non-standard residue; d: D form. Trp(4-Cl)(βS-Me) = C[C@@H](c1c[nH]c2cccc(Cl)c12)[C@H](N)C(=O)O; Pro(trans-4-NH2) = O=C([C@@H]1C[C@@H](N[*:3])CN1[*:1])[*:2]; Bip(4'-COOH) = N[C@@H](Cc1ccc(-c2ccc(C(=O)O)cc2)cc1)C(=O)O; Phe(4-COOH) = N[C@@H](Cc1ccc(C(=O)O)cc1)C(=O)O; hTyr = N[C@@H](CCc1ccc(O)cc1)C(=O)O; dDab = NCC[C@@H](N)C(=O)O; dNMeA = CN[C@H](C)C(=O)O

The binders below were run against Recombinant human IL-1β (BioLegend 579404) (human, UniProt P01584 117-269) (assay: cell-based or functional assay).

Row | Binder | MRC5 IC50 [nM]
1 | cyclo([Bip(4'-COOH)]W[Phe(4-COOH)]G[Pro(trans-4-NH2)][Trp(4-Cl)(βS-Me)]D[dNMeA]G[Bip(4'-COOH)]KL[dS][hTyr]) (SMILES CC(C)C[C@@H]1NC(=O)[C@H](CCCCN)NC(=O)[C@H](Cc2ccc(-c3ccc(C(=O)O)cc3)cc2)NC(=O)CNC(=O)[C@@H](C)N(C)C(=O)[C@H](CC(=O)O)NC(=O)[C@H]([C@@H](C)c2c[nH]c3cccc(Cl)c23)NC(=O)[C@@H]2C[C@@H](N)CN2C(=O)CNC(=O)[C@H](Cc2ccc(C(=O)O)cc2)NC(=O)[C@H](Cc2c[nH]c3ccccc23)NC(=O)[C@H](Cc2ccc(-c3ccc(C(=O)O)cc3)cc2)NC(=O)[C@H](CCc2ccc(O)cc2)NC(=O)[C@@H](CO)NC1=O) [SEQ ID NO: 44] | 0.132
2 | cyclo([Bip(4'-COOH)]W[Phe(4-COOH)]G[Pro(trans-4-NH2)][Trp(4-Cl)(βS-Me)]D[dNMeA]G[Bip(4'-COOH)]KL[dA][hTyr]) (SMILES CC(C)C[C@@H]1NC(=O)[C@H](CCCCN)NC(=O)[C@H](Cc2ccc(-c3ccc(C(=O)O)cc3)cc2)NC(=O)CNC(=O)[C@@H](C)N(C)C(=O)[C@H](CC(=O)O)NC(=O)[C@H]([C@@H](C)c2c[nH]c3cccc(Cl)c23)NC(=O)[C@@H]2C[C@@H](N)CN2C(=O)CNC(=O)[C@H](Cc2ccc(C(=O)O)cc2)NC(=O)[C@H](Cc2c[nH]c3ccccc23)NC(=O)[C@H](Cc2ccc(-c3ccc(C(=O)O)cc3)cc2)NC(=O)[C@H](CCc2ccc(O)cc2)NC(=O)[C@@H](C)NC1=O) [SEQ ID NO: 42] | 0.627
3 | cyclo([Bip(4'-COOH)]W[Phe(4-COOH)]G[Pro(trans-4-NH2)][Trp(4-Cl)(βS-Me)]D[dNMeA]G[Bip(4'-COOH)]KL[dDab][hTyr]) (SMILES CC(C)C[C@@H]1NC(=O)[C@H](CCCCN)NC(=O)[C@H](Cc2ccc(-c3ccc(C(=O)O)cc3)cc2)NC(=O)CNC(=O)[C@@H](C)N(C)C(=O)[C@H](CC(=O)O)NC(=O)[C@H]([C@@H](C)c2c[nH]c3cccc(Cl)c23)NC(=O)[C@@H]2C[C@@H](N)CN2C(=O)CNC(=O)[C@H](Cc2ccc(C(=O)O)cc2)NC(=O)[C@H](Cc2c[nH]c3ccccc23)NC(=O)[C@H](Cc2ccc(-c3ccc(C(=O)O)cc3)cc2)NC(=O)[C@H](CCc2ccc(O)cc2)NC(=O)[C@@H](CCN)NC1=O) [SEQ ID NO: 43] | 0.244

Continued, values first:

Row | MRC5 IC50 [nM] | Binder
4 | 0.134 | cyclo([Bip(4'-COOH)]W[Phe(4-COOH)]G[Pro(trans-4-NH2)][Trp(4-Cl)(βS-Me)]D[dNMeA]G[Bip(4'-COOH)]KS[dDab][hTyr]) (SMILES C[C@@H]1C(=O)NCC(=O)N[C@@H](Cc2ccc(-c3ccc(C(=O)O)cc3)cc2)C(=O)N[C@@H](CCCCN)C(=O)N[C@@H](CO)C(=O)N[C@H](CCN)C(=O)N[C@@H](CCc2ccc(O)cc2)C(=O)N[C@@H](Cc2ccc(-c3ccc(C(=O)O)cc3)cc2)C(=O)N[C@@H](Cc2c[nH]c3ccccc23)C(=O)N[C@@H](Cc2ccc(C(=O)O)cc2)C(=O)NCC(=O)N2C[C@H](N)C[C@H]2C(=O)N[C@@H]([C@@H](C)c2c[nH]c3cccc(Cl)c23)C(=O)N[C@@H](CC(=O)O)C(=O)N1C) [SEQ ID NO: 46]
5 | 0.174 | cyclo([Bip(4'-COOH)]W[Phe(4-COOH)]G[Pro(trans-4-NH2)][Trp(4-Cl)(βS-Me)]D[dNMeA]G[Bip(4'-COOH)]KS[dA][hTyr]) (SMILES C[C@@H]1C(=O)NCC(=O)N[C@@H](Cc2ccc(-c3ccc(C(=O)O)cc3)cc2)C(=O)N[C@@H](CCCCN)C(=O)N[C@@H](CO)C(=O)N[C@H](C)C(=O)N[C@@H](CCc2ccc(O)cc2)C(=O)N[C@@H](Cc2ccc(-c3ccc(C(=O)O)cc3)cc2)C(=O)N[C@@H](Cc2c[nH]c3ccccc23)C(=O)N[C@@H](Cc2ccc(C(=O)O)cc2)C(=O)NCC(=O)N2C[C@H](N)C[C@H]2C(=O)N[C@@H]([C@@H](C)c2c[nH]c3cccc(Cl)c23)C(=O)N[C@@H](CC(=O)O)C(=O)N1C) [SEQ ID NO: 45]
